Assay results from the RNAGym collection of RNA variant scans (doi:10.7554/elife.80360).

B1: Hairpin Ribozyme (parent)
chain: GUCCUCUUUCACGUGCGCGUGAAAGAGAGAAGUGAACCAGAGAAACACACGUUGUGGUAUAUUACCUGGUA

Variants of: B1
Test: self-cleavage, relative activity (ratio to wild type); higher = more cleavage; co-transcriptional

Variant	self-cleavage
GUCCUCUUUCACGAGCGCGUGAAAGAGAGAAGUGAAACAGAGAAACACACGUUGUGGUAUAUUACCUGGUA	0.378
GUCCUCUUUCACGAGCGCGUGAAAGAGAGAAGUGAACCAGAGAAACACACGUAGUGGUAUAUUACCUGGUA	1.12
GUCCUCUUUCACGAGCGCGUGAAAGAGAGAAGUGAACCAGAGAAACACACGUUGUGGUAGAUUACCUGGUA	0.614
GUCCUCUUUCACGAGCGCGUGAAAGAGAGAAGUGAACCAGAGAAACACACGUUGUGGUAUAUUACCUGAUA	0.219
GUCCUCUUUCACGAGCGCGUGAAAGAGAGAAGUGAACCAGAGAAACACACGUUGUGGUAUAUUAACUGGUA	0.958
GUCCUCUUUCACGAGCGCGUGAAAGAGAGAAGUGAACCAGAGAACCACACGUUGUGGUAUAUUACCUGGUA	0.21
GUCCUCUUUCACGAGCGCGUGAAAGAGAGAAGUGAACCAGAGAAUCACACGUUGUGGUAUAUUACCUGGUA	0.116
GUCCUCUUUCACGAGCGCGUGAAAGAGAGAAGUGAACCAGAGAAACACACGUUGUGGUAUAUGACCUGGUA	0.0901
GUCCUCUUUCACGCGCGCGUGCAAGAGAGAAGUGAACCAGAGAAACACACGUUGUGGUAUAUUACCUGGUA	0.832
GUCCUCUUUCACGAGCGCGUGAAAGAGAGAAGUGAACCAGAGAAACACACGGUGUGGUAUAUUACCUGGUA	0.494
GUCCUCUUUCACGAGCGCGUGAAAGAGAGAAGUGAACCAGAGAAACACACGCUGUGGUAUAUUACCUGGUA	0.788
GUCCUCUUUCACGAGCGCGUGAAAGAGAGAAGUGAACUAGAGAAACACACGUUGUGGUAUAUUACCUGGUA	0.478
GUCCUCUUUCACGAGCGCGUGAAAGAGAGAAGUCAACCAGAGAAACACACGUUGUGGUAUAUUACCUGGUA	1.19
GUCCUCUUUCACGAGCGCGUGAAAGAGAGAAGUAAACCAGAGAAACACACGUUGUGGUAUAUUACCUGGUA	1.31
GUCCUCUUUCACGAGCGCGUGAAAGAGAGAAGUGAACCAGAGAAACACACGUUGUGGUAUAUUACUUGGUA	0.335
GUCCUCUUUCACGAGCGCGUGAAAGAGAGAAGUGAACCAGAGAAACACAGGUUGUGGUAUAUUACCUGGUA	0.279
GUCCUCUUUCACGAGCGCGUAAAAGAGAGAAGUGAACCAGAGAAACACACGUUGUGGUAUAUUACCUGGUA	0.936
GUCCUCUUUCACGAGCGCGUUAAAGAGAGAAGUGAACCAGAGAAACACACGUUGUGGUAUAUUACCUGGUA	0.795
GUCCUCUUUCACGAGGGCGUGAAAGAGAGAAGUGAACCAGAGAAACACACGUUGUGGUAUAUUACCUGGUA	0.594

Variant	self-cleavage
GUCCUCUUUCACGAGAGCGUGAAAGAGAGAAGUGAACCAGAGAAACACACGUUGUGGUAUAUUACCUGGUA	0.849
GUCCUCUUUCACGAGUGCGUGAAAGAGAGAAGUGAACCAGAGAAACACACGUUGUGGUAUAUUACCUGGUA	0.813
GUCCUCUUUCACGAGCGCGUGAAAGAGAGAAGCGAACCAGAGAAACACACGUUGUGGUAUAUUACCUGGUA	0.153
GUCCUCUUUCACGAGCGCGUGAAAGAGAGAAGGGAACCAGAGAAACACACGUUGUGGUAUAUUACCUGGUA	0.207
GUCCUCUUUCACGAGCGCGUGAAAGAGAGAAGAGAACCAGAGAAACACACGUUGUGGUAUAUUACCUGGUA	0.137
GUCCUCUUUCACGAGCGCGUGAAAGAGAGAACUGAACCAGAGAAACACACGUUGUGGUAUAUUACCUGGUA	0.157
GUCCUCUUUCACGAGCGCGUGAAAGAGAGAAGUGAACCAAAGAAACACACGUUGUGGUAUAUUACCUGGUA	0.317
GUCCUCUUUCACGAGCGCGUGAAAGAGAGAAGUGAACCAUAGAAACACACGUUGUGGUAUAUUACCUGGUA	0.127
GUCCUCUUUCACGAGCGCGUGAAAGAGAGAAGUGAACCACAGAAACACACGUUGUGGUAUAUUACCUGGUA	0.187
GUCCUCUUUCACGAGCGCGUGAAAGAGAUAAGUGAACCAGAGAAACACACGUUGUGGUAUAUUACCUGGUA	0.206
GUCCUCUUUCACGAGCGCGUGAAAGAGACAAGUGAACCAGAGAAACACACGUUGUGGUAUAUUACCUGGUA	0.168
GUCCUCUUUCACGAGCGCGUGAAAGAGAGAAGUGAACCAGAGAAACACACGUUGUGAUAUAUUACCUGGUA	0.139
GUCCUCUUUCACGAGCGAGUGAAAGAGAGAAGUGAACCAGAGAAACACACGUUGUGGUAUAUUACCUGGUA	0.888
GUCCUCUUUCACGAGCGGGUGAAAGAGAGAAGUGAACCAGAGAAACACACGUUGUGGUAUAUUACCUGGUA	0.636
GUCCUCUUUCACGAGCGCGUGAAAGAGAGAAGUGAACCAGAGAAACACACGUUGUGGUAUGUUACCUGGUA	0.101
GUCCUCUUUCACGAGCGCGUGAAAGAGAGAAGUGAACCAGAGAAACACACGUUGUGGUAUUUUACCUGGUA	0.266
GUCCUCUUUCACGAGCGCGUGAAAGAGAGAAGUGAACCAGAGAAACACACGUUGUGGUAUAUUACCUGGGA	0.714
GUCCUCUUUCACGAGCGCGUGAAAGAGAGAAGUGAACCAGAGAAACACACGUUGUGGUAUAUUACCUGGCA	1.01
GUCCUCUUUCACGAGCGCGUGAAAGAGAGAAGUGAACCAGAGAAACACACGUUGUGGUUUAUUACCUGGUA	0.28
